Assay results taken from patent US20260248972A1, “DUAL RECEPTOR TARGETING RADIOLIGANDS AND USES THEREOF RELATED APPLICATIONS” (priority 2022, published 2026).
*1 amine or outer side, *2 acyl side, *3 side chain or, on linkers, in order; H or OH if unused. Where a SMILES comes first, the peptide text is derived from it. Bridges are numbered along the chain shown (N, C = ends). Side-chain parts run from the residue outwards. [ ]: non-standard residue; d: D form. The star is where a group is joined. X1 = CC(C)(C)C(=O)CN1C(=O)[C@H](N*)CN(C2CCCCC2)c2ccccc21; DOTA = O=C(O)CN1CCN(CC(=O)O)CCN(CC(=O)*)CCN(CC(=O)O)CC1; 3Abz = Nc1cccc(C(=O)O)c1; CO = O=C([*:1])[*:2]

Experiment: in vivo
Details: BALB/c nude, mouse, in vivo, iv, total radioactivity
Experimental: To a 0.5 M NaOAc buffer (20-50 μL, pH=4.5) was added 4 μL of exemplary or comparator compound in DMSO stock solution (2000 μM) and 2 mCi ^177Lu (ITM Isotope Technologies Munich), the resulting mixture was heated to 95° C. for 15 min. The resulting product was analyzed by radio-TLC and radio-HPLC (column: Shim-pack GIST 5 μm 4.6*150 mm; buffer A: 0.2% formic acid H2O; buffer B: 0.1% formic acid acetonitrile; flow rate: 1 mL/min; gradient: 0-5 min: 10% B to 95% B; then 5-8 min: 95% B). The labelled products were used immediately or diluted by a PBS buffer containing freshly added 3 mg/mL ascorbate.
All animal care and experimental procedure were performed by following the animal protocols approved by the ethics committee of China Institute of Radiation Protection. The BALB/c nude mice (Charles River, Beijing) were utilized for these studies. Mice were below 5 per cage in sterile, microisolator cages under temperature- and humidity-controlled conditions with a 12 h light/12 h dark schedule and fed irradiated rodent chow and reverse osmosis (RO) sterile water ad libitum. In preparation for tumor cell inoculations, mice were anesthetized with isoflurane (RWD Life Science Inc.) at an induction rate of 4% and maintained at a rate of 2.5% with 0.4 L oxygen delivered via precision vaporizer and a non-rebreathing apparatus. These mice received subcutaneous rear flank injections of approximately 4×10^6 AR42J cells ([…] pancreatic cancer cell line) suspended in 200 μL of phosphate-buffered saline (PBS) and Matrigel (Corning) (1/1). Xenografted tumors were allowed to grow for ~2-4 weeks post-inoculation and ranged in mass from 0.05 to 0.50 g (average tumor size, 0.20 g). […] The mice were euthanized, and the tissues and organs were excised from the animals at 4, 24 and 72 h post-injection. The tissues and organs were weighed, counted in a PerkinElmer 2480 WIZARD2 γ counter, and the percent injected dose (% ID) and % ID/g of each organ or tissue were calculated.

## C[C@@H](O)[C@H](NC(=O)[C@@H]1CSSC[C@H](NC(=O)[C@@H](Cc2ccccc2)NC(=O)CNC(=O)[C@H]2CCCN2C(=O)CNC(=O)[C@H]2CCCN2C(=O)CNC(=O)[C@H](CCCCNC(=O)c2cccc(NC(=O)N[C@@H]3CN(C4CCCCC4)c4ccccc4N(CC(=O)C(C)(C)C)C3=O)c2)NC(=O)CN2CCN(CC(=O)O)CCN(CC(=O)O)CCN(CC(=O)O)CC2)C(=O)N[C@@H](Cc2ccc(O)cc2)C(=O)N[C@H](Cc2c[nH]c3ccccc23)C(=O)N[C@@H](CCCCN)C(=O)N[C@@H]([C@@H](C)O)C(=O)N1)C(=O)O [Compound I-55, DOTA-K(Z360)-G-p-G-p-G-f[CYwKTC]T-OH] ({DOTA}-K([3Abz-CO-X1])G[dP]G[dP]G[dF]CY[dW]KTCT-OH; disulfide 8-13)
T/K Tumor/Kidney ratio
  tissue to tissue ratio at 24 h: 1.1
T/L Tumor/Liver ratio
  tissue to tissue ratio at 24 h: 2.5
T/P Tumor/Pancreas ratio
  tissue to tissue ratio at 24 h: 14
T/Sp Tumor/Spleen ratio
  tissue to tissue ratio at 24 h: 34
T/St Tumor/Stomach ratio
  tissue to tissue ratio at 24 h: 7.3
Uptake Kidney
  tissue uptake at 24 h: 20.8 %ID/g
Uptake Liver
  tissue uptake at 24 h: 9.21 %ID/g
Uptake Pancreas
  tissue uptake at 24 h: 1.66 %ID/g
Uptake Spleen
  tissue uptake at 24 h: 0.67 %ID/g
Uptake Stomach
  tissue uptake at 24 h: 3.13 %ID/g
Uptake Tumor
  tissue uptake at 24 h: 23 %ID/g

## C[C@@H](O)[C@H](NC(=O)[C@@H]1CSSC[C@H](NC(=O)[C@@H](Cc2ccccc2)NC(=O)[C@H](CCCCNC(=O)c2cccc(NC(=O)N[C@@H]3CN(C4CCCCC4)c4ccccc4N(CC(=O)C(C)(C)C)C3=O)c2)NC(=O)CNC(=O)CNC(=O)CN2CCN(CC(=O)O)CCN(CC(=O)O)CCN(CC(=O)O)CC2)C(=O)N[C@@H](Cc2ccc(O)cc2)C(=O)N[C@H](Cc2c[nH]c3ccccc23)C(=O)N[C@@H](CCCCN)C(=O)N[C@@H]([C@@H](C)O)C(=O)N1)C(=O)O [Compound I-49, DOTA-G-G-K(Z360)-f[CYwKTC]T-OH] ({DOTA}-GGK([3Abz-CO-X1])[dF]CY[dW]KTCT-OH; disulfide 5-10)
T/K Tumor/Kidney ratio
  tissue to tissue ratio at 24 h: 1.5
T/L Tumor/Liver ratio
  tissue to tissue ratio at 24 h: 1.5
T/P Tumor/Pancreas ratio
  tissue to tissue ratio at 24 h: 9.8
T/Sp Tumor/Spleen ratio
  tissue to tissue ratio at 24 h: 14
T/St Tumor/Stomach ratio
  tissue to tissue ratio at 24 h: 3.2
Uptake Kidney
  tissue uptake at 24 h: 5.93 %ID/g
Uptake Liver
  tissue uptake at 24 h: 5.92 %ID/g
Uptake Pancreas
  tissue uptake at 24 h: 0.92 %ID/g
Uptake Spleen
  tissue uptake at 24 h: 0.62 %ID/g
Uptake Stomach
  tissue uptake at 24 h: 2.77 %ID/g
Uptake Tumor
  tissue uptake at 24 h: 8.97 %ID/g

## C[C@@H](O)[C@H](NC(=O)[C@@H]1CSSC[C@H](NC(=O)[C@@H](Cc2ccccc2)NC(=O)[C@H](CCCCNC(=O)c2cccc(NC(=O)N[C@@H]3CN(C4CCCCC4)c4ccccc4N(CC(=O)C(C)(C)C)C3=O)c2)NC(=O)COCCOCCNC(=O)CN2CCN(CC(=O)O)CCN(CC(=O)O)CCN(CC(=O)O)CC2)C(=O)N[C@@H](Cc2ccc(O)cc2)C(=O)N[C@H](Cc2c[nH]c3ccccc23)C(=O)N[C@@H](CCCCN)C(=O)N[C@@H]([C@@H](C)O)C(=O)N1)C(=O)O [^177Lu-I-35, metal not drawn]
% ID/g Adrenal gland
  tissue uptake at 4 h: 2.8 %ID/g
  tissue uptake at 24 h: 2.3 %ID/g
  tissue uptake at 72 h: 0.34 %ID/g
% ID/g Blood
  tissue uptake at 4 h: 1.98 %ID/g
  tissue uptake at 24 h: 0.11 %ID/g
  tissue uptake at 72 h: 0.03 %ID/g
% ID/g Fat
  tissue uptake at 4 h: 3.49 %ID/g
  tissue uptake at 24 h: 0.75 %ID/g
  tissue uptake at 72 h: 0.41 %ID/g
% ID/g Femur
  tissue uptake at 4 h: 1.01 %ID/g
  tissue uptake at 24 h: 0.52 %ID/g
  tissue uptake at 72 h: 0.21 %ID/g
% ID/g Heart
  tissue uptake at 4 h: 1.26 %ID/g
  tissue uptake at 24 h: 0.56 %ID/g
  tissue uptake at 72 h: 0.25 %ID/g
% ID/g Intestine
  tissue uptake at 4 h: 2.36 %ID/g
  tissue uptake at 24 h: 0.84 %ID/g
  tissue uptake at 72 h: 0.72 %ID/g
% ID/g Kidney
  tissue uptake at 4 h: 18.5 %ID/g
  tissue uptake at 24 h: 6.06 %ID/g
  tissue uptake at 72 h: 4.51 %ID/g
% ID/g Liver
  tissue uptake at 4 h: 18.1 %ID/g
  tissue uptake at 24 h: 5.06 %ID/g
  tissue uptake at 72 h: 2.41 %ID/g
% ID/g Lung
  tissue uptake at 4 h: 3.44 %ID/g
  tissue uptake at 24 h: 1.73 %ID/g
  tissue uptake at 72 h: 0.66 %ID/g
% ID/g Muscle
  tissue uptake at 4 h: 0.42 %ID/g
  tissue uptake at 24 h: 0.12 %ID/g
  tissue uptake at 72 h: 0.03 %ID/g
% ID/g Pancreas
  tissue uptake at 4 h: 5.03 %ID/g
  tissue uptake at 24 h: 0.96 %ID/g
  tissue uptake at 72 h: 0.34 %ID/g
% ID/g Spleen
  tissue uptake at 4 h: 0.82 %ID/g
  tissue uptake at 24 h: 0.47 %ID/g
  tissue uptake at 72 h: 0.28 %ID/g
% ID/g Stomach
  tissue uptake at 4 h: 6.98 %ID/g
  tissue uptake at 24 h: 3.09 %ID/g
  tissue uptake at 72 h: 2.29 %ID/g
% ID/g Tumor
  tissue uptake at 4 h: 27.2 %ID/g
  tissue uptake at 24 h: 17.8 %ID/g
  tissue uptake at 72 h: 18 %ID/g

## C[C@@H](O)[C@H](NC(=O)[C@@H]1CSSC[C@H](NC(=O)[C@@H](Cc2ccccc2)NC(=O)CCOCCOCCOCCOCCOCCOCCNC(=O)[C@H](CCCCNC(=O)c2cccc(NC(=O)N[C@@H]3CN(C4CCCCC4)c4ccccc4N(CC(=O)C(C)(C)C)C3=O)c2)NC(=O)CN2CCN(CC(=O)O)CCN(CC(=O)O)CCN(CC(=O)O)CC2)C(=O)N[C@@H](Cc2ccc(O)cc2)C(=O)N[C@H](Cc2c[nH]c3ccccc23)C(=O)N[C@@H](CCCCN)C(=O)N[C@@H]([C@@H](C)O)C(=O)N1)C(=O)O [Compound I-40, DOTA-K(Z360)-PEG6-f[CYwKTC]T-OH]
T/K Tumor/Kidney ratio
  tissue to tissue ratio at 24 h: 2
T/L Tumor/Liver ratio
  tissue to tissue ratio at 24 h: 5.7
T/P Tumor/Pancreas ratio
  tissue to tissue ratio at 24 h: 59
T/Sp Tumor/Spleen ratio
  tissue to tissue ratio at 24 h: 53
T/St Tumor/Stomach ratio
  tissue to tissue ratio at 24 h: 10
Uptake Kidney
  tissue uptake at 24 h: 8.9 %ID/g
Uptake Liver
  tissue uptake at 24 h: 3.1 %ID/g
Uptake Pancreas
  tissue uptake at 24 h: 0.3 %ID/g
Uptake Spleen
  tissue uptake at 24 h: 0.3 %ID/g
Uptake Stomach
  tissue uptake at 24 h: 1.8 %ID/g
Uptake Tumor
  tissue uptake at 24 h: 17.9 %ID/g

## C[C@@H](O)[C@H](NC(=O)[C@@H]1CSSC[C@H](NC(=O)[C@@H](Cc2ccccc2)NC(=O)[C@H](CCCCNC(=O)COCCOCCNC(=O)c2cccc(NC(=O)N[C@@H]3CN(C4CCCCC4)c4ccccc4N(CC(=O)C(C)(C)C)C3=O)c2)NC(=O)CN2CCN(CC(=O)O)CCN(CC(=O)O)CCN(CC(=O)O)CC2)C(=O)N[C@@H](Cc2ccc(O)cc2)C(=O)N[C@H](Cc2c[nH]c3ccccc23)C(=O)N[C@@H](CCCCN)C(=O)N[C@@H]([C@@H](C)O)C(=O)N1)C(=O)O [^177Lu-I-36, metal not drawn]
% ID/g Adrenal gland
  tissue uptake at 4 h: 2.48 %ID/g
  tissue uptake at 24 h: 1.67 %ID/g
  tissue uptake at 72 h: 0.87 %ID/g
% ID/g Blood
  tissue uptake at 4 h: 2.09 %ID/g
  tissue uptake at 24 h: 0.7 %ID/g
  tissue uptake at 72 h: 0.21 %ID/g
% ID/g Fat
  tissue uptake at 4 h: 3.32 %ID/g
  tissue uptake at 24 h: 2.39 %ID/g
  tissue uptake at 72 h: 1.12 %ID/g
% ID/g Femur
  tissue uptake at 4 h: 0.79 %ID/g
  tissue uptake at 24 h: 0.76 %ID/g
  tissue uptake at 72 h: 0.59 %ID/g
% ID/g Heart
  tissue uptake at 4 h: 1.36 %ID/g
  tissue uptake at 24 h: 0.85 %ID/g
  tissue uptake at 72 h: 0.47 %ID/g
% ID/g Intestine
  tissue uptake at 4 h: 2.27 %ID/g
  tissue uptake at 24 h: 1.29 %ID/g
  tissue uptake at 72 h: 1.39 %ID/g
% ID/g Kidney
  tissue uptake at 4 h: 20.7 %ID/g
  tissue uptake at 24 h: 18.4 %ID/g
  tissue uptake at 72 h: 14.2 %ID/g
% ID/g Liver
  tissue uptake at 4 h: 12 %ID/g
  tissue uptake at 24 h: 7.22 %ID/g
  tissue uptake at 72 h: 3.99 %ID/g
% ID/g Lung
  tissue uptake at 4 h: 2.89 %ID/g
  tissue uptake at 24 h: 1.72 %ID/g
  tissue uptake at 72 h: 1.36 %ID/g
% ID/g Muscle
  tissue uptake at 4 h: 0.41 %ID/g
  tissue uptake at 24 h: 0.25 %ID/g
  tissue uptake at 72 h: 0.13 %ID/g
% ID/g Pancreas
  tissue uptake at 4 h: 5.66 %ID/g
  tissue uptake at 24 h: 3.34 %ID/g
  tissue uptake at 72 h: 1.28 %ID/g
% ID/g Spleen
  tissue uptake at 4 h: 0.97 %ID/g
  tissue uptake at 24 h: 0.85 %ID/g
  tissue uptake at 72 h: 0.36 %ID/g
% ID/g Stomach
  tissue uptake at 4 h: 6.6 %ID/g
  tissue uptake at 24 h: 5.96 %ID/g
  tissue uptake at 72 h: 3.8 %ID/g
% ID/g Tumor
  tissue uptake at 4 h: 45.1 %ID/g
  tissue uptake at 24 h: 35.2 %ID/g
  tissue uptake at 72 h: 36.4 %ID/g
